Consider 7 molecules from patent US20260191981A1 (ARROWHEAD PHARMACEUTICALS, published 2026).

Broadly, the Kd is the equilibrium constant for the complex coming apart. Broadly, the koff is the first-order rate constant of dissociation. The term kon denotes a measure of how fast the partners come together.

Where a chain is given by its changes, count along the chain named.

B1: Fab0064 (Fab, V domains shown)
VH: EVQLVESGGGLVQPGGSLRLSCATSGYTFTSYWMHWVRQAPGKGLEWVAEINPTNGRVNYIEKFKSRITLSVDKSKSTVYLQMNSLRAEDTAVYYCARGTRAYHYWGQGTLVTVSS
VL: DIQLTQSPSSLSASVGDRVTITCRASDGLYSNLAWYQQKPGKAPKLLIYDAKNLASGVPSRFSGSGSGTDYTLTISSLQPEDFATYYCQHFWGTPLTFGQGTKVEIKR
B2: Fab0069 (Fab, V domains shown)
VH: B1 VH with M34V, V58S
VL: B1 VL with K52T, N53K
B3: Fab0068 (Fab, V domains shown)
VH: B1 VH with M34V
VL: B1 VL with K52T, N53K
B4: Fab0066 (Fab, V domains shown)
VH: B1 VH with M34V
VL: B1 VL with K52F
B5: Fab0070 (Fab, V domains shown)
VH: B1 VH with Y27F, V58T
VL: B1 VL with G28K, K52T, N53L
B6: Fab0065 (Fab, V domains shown)
VH: B1 VH with M34V, V58S
VL: B1 VL with G28N, S31R, K52T, N53K
B7: Fab0067 (Fab, V domains shown)
VH: B1 VH with M34V, V58T
VL: B1 VL with G28N, S31R, K52T, N53K

T2 sequence (P02786 89-760 limits assumed): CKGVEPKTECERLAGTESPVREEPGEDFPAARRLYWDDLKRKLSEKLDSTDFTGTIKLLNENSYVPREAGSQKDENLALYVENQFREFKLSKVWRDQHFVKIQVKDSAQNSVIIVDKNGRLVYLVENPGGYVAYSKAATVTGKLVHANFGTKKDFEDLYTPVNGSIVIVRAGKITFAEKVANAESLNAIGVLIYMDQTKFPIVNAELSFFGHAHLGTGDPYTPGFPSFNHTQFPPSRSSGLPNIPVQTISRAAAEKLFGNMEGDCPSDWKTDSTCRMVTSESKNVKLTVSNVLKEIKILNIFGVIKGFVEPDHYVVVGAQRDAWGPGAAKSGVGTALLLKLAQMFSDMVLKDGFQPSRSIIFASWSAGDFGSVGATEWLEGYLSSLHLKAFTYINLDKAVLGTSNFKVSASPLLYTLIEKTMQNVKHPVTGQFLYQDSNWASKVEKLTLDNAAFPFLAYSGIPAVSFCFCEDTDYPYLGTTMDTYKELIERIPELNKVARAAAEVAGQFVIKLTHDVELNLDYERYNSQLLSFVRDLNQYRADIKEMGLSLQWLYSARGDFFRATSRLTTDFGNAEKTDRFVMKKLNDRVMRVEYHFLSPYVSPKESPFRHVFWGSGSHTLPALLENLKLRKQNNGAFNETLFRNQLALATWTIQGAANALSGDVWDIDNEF
T4 sequence (P02786 89-760 limits assumed): as above

The target in the first test is T1, his-tagged cTfR1 (Acro Biosystems p/n TFR-C524a) (cynomolgus monkey, UniProt H9EXL1 89-760 (rhesus entry)).
T1 construct: Bought reagent of the SPR assay
T1 sequence (chain, as listed by the source): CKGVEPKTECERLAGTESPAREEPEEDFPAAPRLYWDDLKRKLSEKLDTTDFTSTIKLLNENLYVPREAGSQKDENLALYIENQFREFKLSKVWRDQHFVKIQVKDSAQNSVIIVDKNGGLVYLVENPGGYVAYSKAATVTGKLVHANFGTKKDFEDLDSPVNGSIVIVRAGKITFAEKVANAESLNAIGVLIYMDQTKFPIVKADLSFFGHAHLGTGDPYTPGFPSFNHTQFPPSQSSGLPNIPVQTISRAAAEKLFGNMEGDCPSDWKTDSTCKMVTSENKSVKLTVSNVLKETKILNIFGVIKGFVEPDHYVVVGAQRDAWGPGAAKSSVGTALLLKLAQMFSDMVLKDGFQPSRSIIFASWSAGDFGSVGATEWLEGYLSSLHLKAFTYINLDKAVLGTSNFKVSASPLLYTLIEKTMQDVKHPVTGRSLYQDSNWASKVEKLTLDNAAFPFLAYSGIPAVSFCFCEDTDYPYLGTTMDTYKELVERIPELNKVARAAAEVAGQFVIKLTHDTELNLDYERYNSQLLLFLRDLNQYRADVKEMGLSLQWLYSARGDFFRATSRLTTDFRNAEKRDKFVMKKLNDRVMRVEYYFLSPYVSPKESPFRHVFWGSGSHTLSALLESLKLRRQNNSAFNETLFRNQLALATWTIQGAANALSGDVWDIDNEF
Nature of the test: SPR, Biacore X100, His-tagged TfR1 captured by anti-His. The procedure: Samples were analyzed via Surface Plasmon Resonance (SPR) to determine kinetics against cynomolgus monkey transferrin receptor 1 (cTfR1). Briefly, a Biacore X100 (Cytiva) was used for SPR measurements using a CM5 chip (carboxymethylated dextran surface, Cytiva p/n BR100399) with anti-histidine antibody irreversibly immobilized on the surface of both flow cells for the reversible capture of his-tagged cTfR1 (Acro Biosystems p/n TFR-C524a). The anti-histidine antibody was irreversibly immobilized via amine coupling using Cytiva provided Amine Coupling Kit (p/n BR100050) and His Capture Kit (p/n 28995056). […] Sample diluent was prepared in house and is composed of 10 mM HEPES buffer pH 7.4, 150 mM NaCl, 3 mM EDTA, and 0.05% Tween 20. Cytiva caps and vials compatible for Biacore X₁₀₀ were used for sample analysis. Each analysis cycle consists of a capture step followed by sample or blank injection, and finally a regeneration step that removes any sample and cTfR1 on the sensor surface. The capture step was performed at 5 μL/min with a contact time of 24 seconds over the active flow cell only, followed by a fluidics wash with 0.1% Tween 20. Generally, 2 μg/mL hTfR1 was a sufficient concentration to observe adequate hTfR1 captured consistently between cycles. Sample or buffer was injected at 30 μL/min with a contact time of 180 seconds and dissociation time of 180 seconds followed by a fluidics wash with 0.1% Tween 20. A 10 mM glycine solution at pH 1.5 (provided in His Capture Kit) was used for regeneration at 30 μL/min with a 60 second contact time. A cycle was performed for each sample concentration analyzed along with one cycle repeating one concentration for variability evaluation and 2-3 buffer cycles. Results were analyzed in Biacore Evaluation Software. Buffer cycles were averaged and subtracted from sample injections prior to kinetic fitting. A monovalent or kinetic fit was specified as relevant for the sample analyzed. Accuracy of the fit is evaluated and data points are excluded as applicable.
Background: Surface plasmon resonance follows binding to a sensor surface in real time, without labels.
For the molecule B1, the affinity, expressed as Kd, was 2.45 nM; the koff was 0.00367 s⁻¹; the kon was found to be 1.5e+06 M⁻¹ s⁻¹.
Molecule B2 yielded a Kd of 2.72 nM, a koff of 0.00375 s⁻¹ and an association rate constant (kon) of 1.38e+06 M⁻¹ s⁻¹.
In turn, B3 registered an equilibrium dissociation constant (Kd) of 2.34 nM, a koff of 0.00366 s⁻¹ and an on-rate (kon) of 1.57e+06 M⁻¹ s⁻¹.
B4 had a Kd of 4.35 nM, an off-rate (koff) of 0.00509 s⁻¹ and a kon of 1.17e+06 M⁻¹ s⁻¹.
Molecule B5 had a Kd of 4.52 nM, a dissociation rate constant (koff) of 0.00582 s⁻¹ and a kon of 1.29e+06 M⁻¹ s⁻¹.
Consider B6, for which binding was characterised by a dissociation constant (Kd) of 1.45 nM, the off-rate constant (koff) is 0.00259 s⁻¹ and the kon amounted to 1.79e+06 M⁻¹ s⁻¹.
In the same order, the values of B7 are 1.75 nM, 0.00328 s⁻¹ and 1.87e+06 M⁻¹ s⁻¹.

Another test concerns the target T2, human transferrin receptor 1 (hTfR1) (human, UniProt P02786 89-760, limits assumed).
T2 construct: The selections used the biotinylated ECD domain of hTfR1
Nature of the test: competition phage ELISA (phage-displayed Fab). Background: In an ELISA, binding on a coated surface is turned into a signal by an enzyme label.
B1 displayed a Kd of 0.34 nM.
Regarding B2, the affinity, expressed as Kd, was 0.35 nM.
Molecule B3 came in with a dissociation constant (Kd) of 0.43 nM.
In turn, B4 showed a Kd of 0.87 nM.
The same measure, in the same setting: the value for B5 was 0.49 nM; that for B6 was 0.26 nM; that for B7 was 0.35 nM.

The target in another test is T3, cynomolgus monkey transferrin receptor 1 (cTfR1) (cynomolgus monkey, UniProt H9EXL1 89-760 (rhesus entry)).
T3 construct: The ELISA against cTfR1 is not described in the text
T3 sequence (chain, as listed by the source): as above
Nature of the test: competition phage ELISA (phage-displayed Fab).
B1: the Kd was 2.02 nM.
The molecule B2 registered a Kd of 1.29 nM.
Same read-out and setting: the value for B3 was 1.75 nM.
B4 displayed a Kd of 1.34 nM.
Regarding B5, the equilibrium dissociation constant (Kd) amounted to 1.39 nM.
Still for that read-out and setting: the value for B6 was 0.57 nM.
B7 displayed a dissociation constant Kd of 0.95 nM.

The target of another test is T2, human transferrin receptor 1 (hTfR1). Nature of the test: competition ELISA, Fab.
For B1, the Kd was 0.67 nM.
B2 displayed a Kd of 0.75 nM.
With B3, the dissociation constant Kd was 0.84 nM.
In the case of B4, binding was characterised by a dissociation constant (Kd) of 0.91 nM.
In turn, B5 showed a dissociation constant (Kd) of 1.11 nM.
The same measure, in the same setting: the value for B6 was 0.33 nM; that for B7 was 0.52 nM.

Another test has as its target T4, his-tagged hTfR1 (Acro Biosystems p/n CD1-H5243) (human, UniProt P02786 89-760).
T4 construct: Bought reagent of the SPR assay
Nature of the test: SPR, Biacore X100, His-tagged TfR1 captured by anti-His. The procedure: Samples were analyzed via Surface Plasmon Resonance (SPR) to determine kinetics against human transferrin receptor 1 (hTfR1). Briefly, a Biacore X100 (Cytiva) was used for SPR measurements using a CM5 chip (carboxymethylated dextran surface, Cytiva p/n BR100399) with anti-histidine antibody irreversibly immobilized on the surface of both flow cells for the reversible capture of his-tagged hTfR1 (Acro Biosystems p/n CD1-H5243). The anti-histidine antibody was irreversibly immobilized via amine coupling using Cytiva provided Amine Coupling Kit (p/n BR100050) and His Capture Kit (p/n 28995056). […] Sample diluent was prepared in house and is composed of 10 mM HEPES buffer pH 7.4, 150 mM NaCl, 3 mM EDTA, and 0.05% Tween 20. Cytiva caps and vials compatible for Biacore X100 are used for sample analysis. Each analysis cycle consists of a capture step followed by sample or blank injection, and finally a regeneration step that removes any sample and hTfR1 on the sensor surface. The capture step was performed at 5 μL/min with a contact time of 24 seconds over the active flow cell only, followed by a fluidics wash with 0.1% Tween 20. Generally, 2 μg/mL hTfR1 is a sufficient concentration to observe adequate hTfR1 captured consistently between cycles. Sample or buffer was injected at 30 μL/min with a contact time of 180 seconds and a dissociation time of 180 seconds followed by a fluidics wash with 0.1% Tween 20. A 10 mM glycine solution at pH 1.5 (provided in His Capture Kit) was used for regeneration at 30 μL/min with a 60 second contact time. A cycle was performed for each sample concentration analyzed along with one cycle repeating one concentration for variability evaluation and 2-3 buffer cycles. Results were analyzed in Biacore Evaluation Software. Buffer cycles were averaged and subtracted from sample injections prior to kinetic fitting. A monovalent or kinetic fit was specified as relevant for the sample analyzed. Accuracy of the fit was evaluated and data points are excluded as applicable. […]
In turn, B1 had a Kd of 0.754 nM, a koff of 0.00111 s⁻¹ and a kon of 1.47e+06 M⁻¹ s⁻¹.
For B2 the same measures were 0.783 nM, 0.00108 s⁻¹ and 1.38e+06 M⁻¹ s⁻¹.
As to B3, the Kd was 0.97 nM, the koff amounted to 0.00113 s⁻¹ and the kon was found to be 1.17e+06 M⁻¹ s⁻¹.
B4 yielded a dissociation constant Kd of 1.41 nM, a koff of 0.00139 s⁻¹ and an association rate constant (kon) of 985000 M⁻¹ s⁻¹.
In the same order, the values of B5 are 0.923 nM, 0.0012 s⁻¹ and 1.3e+06 M⁻¹ s⁻¹.
Consider B6, for which the Kd is 0.413 nM, the off-rate (koff) was 0.00071 s⁻¹ and the kon is 1.72e+06 M⁻¹ s⁻¹.
B7 returned a Kd of 0.543 nM, an off-rate constant (koff) of 0.000804 s⁻¹ and an on-rate (kon) of 1.48e+06 M⁻¹ s⁻¹.

In another test the target is T3, cynomolgus monkey transferrin receptor …. Nature of the test: competition ELISA, Fab.
As to B1, binding was put at a Kd of 5.04 nM.
As for B2, the Kd came out at 4.68 nM.
B3 showed a Kd of 7.37 nM.
The molecule B4 returned a Kd of 9.4 nM.
As to B5, binding was characterised by a dissociation constant (Kd) of 15.3 nM.
Regarding B6, the Kd amounted to 2.87 nM.
Turning to B7, binding was characterised by a dissociation constant (Kd) of 3.02 nM.
